Laboratory results as given in publication PMC12695660, “Genome-scale CRISPR screens identify PTGES3 as a direct modulator of androgen receptor function in advanced prostate cancer”.
Positions count from the first letter of the chain named.

Key:
[1] = biological target: ARΔNTD (AR DBD-hinge-LBD) (mouse, UniProt P19091 528-899); assay: fluorescence polarization; 1 uM DHT; no PTGES3; apparent Kd only plotted; FP/EMSA: 150 mM NaCl, 20 mM HEPES pH 7.5, 1 mM TCEP, 1 uM DHT, 10% glycerol, 0.05% IGEPAL CA-630, 100 nM DNA; proteins preincubated 30 min on ice at 8 uM; assay temperature not stated. Mass photometry: same buffer at 5 uM, flash diluted into PBS to 10 nM; settings: protein: recombinant; chain copies: 2; label: 5'-fluorescein (6-FAM) on sense strand; blunt
[2] = biological target: T1, ARΔNTD (AR DBD-hinge-LBD);Smt3-PTGES3 (mouse;human, UniProt P19091;Q15185 528-899;1-160, |); assay: fluorescence polarization; 1 uM DHT; equimolar Smt3-PTGES3; binding stronger than ARΔNTD alone (P=0.0254); FP/EMSA: 150 mM NaCl, 20 mM HEPES pH 7.5, 1 mM TCEP, 1 uM DHT, 10% glycerol, 0.05% IGEPAL CA-630, 100 nM DNA; proteins preincubated 30 min on ice at 8 uM; assay temperature not stated. Mass photometry: same buffer at 5 uM, flash diluted into PBS to 10 nM; settings: protein: recombinant;recombinant; tags: ;N-terminal Smt3; label: 5'-fluorescein (6-FAM) on sense strand; blunt
[3] = biological target: ARΔNTD (AR DBD-hinge-LBD);PTGES3 (tagless) (mouse;human, UniProt P19091;Q15185 528-899;1-160, |); assay: fluorescence polarization; 1 uM DHT; equimolar PTGES3; binding stronger than ARΔNTD alone (P=0.0337); FP/EMSA: 150 mM NaCl, 20 mM HEPES pH 7.5, 1 mM TCEP, 1 uM DHT, 10% glycerol, 0.05% IGEPAL CA-630, 100 nM DNA; proteins preincubated 30 min on ice at 8 uM; assay temperature not stated. Mass photometry: same buffer at 5 uM, flash diluted into PBS to 10 nM; settings: protein: recombinant;recombinant; tags: ;Smt3 tag cleaved by Ulp1; label: 5'-fluorescein (6-FAM) on sense strand; blunt
[4] = biological target: T1, ARΔNTD (AR DBD-hinge-LBD);Smt3-PTGES3; assay: mass photometry; Smt3-PTGES3 restricts formation of heterogeneous complexes; FP/EMSA: 150 mM NaCl, 20 mM HEPES pH 7.5, 1 mM TCEP, 1 uM DHT, 10% glycerol, 0.05% IGEPAL CA-630, 100 nM DNA; proteins preincubated 30 min on ice at 8 uM; assay temperature not stated. Mass photometry: same buffer at 5 uM, flash diluted into PBS to 10 nM; settings: protein: recombinant;recombinant; tags: ;N-terminal Smt3; blunt
[5] = biological target: ARDBD;PTGES3 (tagless) (mouse;human, UniProt P19091;Q15185 528-631;1-160, |); assay: EMSA; equimolar PTGES3 augments ARDBD binding; PTGES3 variant (tagless or Smt3) not stated; FP/EMSA: 150 mM NaCl, 20 mM HEPES pH 7.5, 1 mM TCEP, 1 uM DHT, 10% glycerol, 0.05% IGEPAL CA-630, 100 nM DNA; proteins preincubated 30 min on ice at 8 uM; assay temperature not stated. Mass photometry: same buffer at 5 uM, flash diluted into PBS to 10 nM; settings: protein: recombinant;recombinant; tags: ;Smt3 tag cleaved by Ulp1; label: 5'-fluorescein (6-FAM) on sense strand; blunt
Chain of ARDBD;PTGES3 (tagless) (P19091 528-631, chain 1 of 2): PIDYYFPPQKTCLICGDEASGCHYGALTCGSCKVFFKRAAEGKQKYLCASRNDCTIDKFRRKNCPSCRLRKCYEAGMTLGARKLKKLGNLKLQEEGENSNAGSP
Chain of ARDBD;PTGES3 (tagless) (Q15185 whole entry, chain 2 of 2): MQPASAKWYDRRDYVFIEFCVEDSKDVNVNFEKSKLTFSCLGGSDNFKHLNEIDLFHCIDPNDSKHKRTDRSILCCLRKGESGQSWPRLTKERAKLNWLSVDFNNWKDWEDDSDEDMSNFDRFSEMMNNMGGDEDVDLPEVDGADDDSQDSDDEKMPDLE

T1 sequence (P19091 528-899, stated change not applied, chain 1 of 2): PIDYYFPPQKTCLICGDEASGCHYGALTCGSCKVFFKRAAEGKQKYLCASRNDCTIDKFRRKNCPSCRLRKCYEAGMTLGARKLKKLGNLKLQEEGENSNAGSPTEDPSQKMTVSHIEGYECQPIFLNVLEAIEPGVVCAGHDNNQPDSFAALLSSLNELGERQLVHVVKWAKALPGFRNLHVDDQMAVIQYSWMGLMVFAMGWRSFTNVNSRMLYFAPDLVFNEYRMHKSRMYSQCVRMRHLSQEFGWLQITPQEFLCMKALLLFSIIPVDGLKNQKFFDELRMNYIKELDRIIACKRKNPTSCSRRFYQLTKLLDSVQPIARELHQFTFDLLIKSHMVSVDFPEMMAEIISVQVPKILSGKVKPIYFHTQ
T1 sequence (Q15185 whole entry, stated change not applied, chain 2 of 2, the tested form may be a part): as the sequence (Q15185 whole entry, chain 2 of 2) above
Chain of ARΔNTD (AR DBD-hinge-LBD) (P19091 528-899, stated change not applied): as the sequence (P19091 528-899, stated change not applied, chain 1 of 2) above
Chain of ARΔNTD (AR DBD-hinge-LBD);PTGES3 (tagless) (P19091 528-899, stated change not applied, chain 1 of 2): as above
Chain of ARΔNTD (AR DBD-hinge-LBD);PTGES3 (tagless) (Q15185 whole entry, stated change not applied, chain 2 of 2, the tested form may be a part): as the sequence (Q15185 whole entry, chain 2 of 2) above

B1: ARE 36 bp (dsDNA)
DNA 1: TAAAATGTAAACAACGTAGAACATCAGGAACTCCGG
DNA 2: CCGGAGTTCCTGATGTTCTACGTTGTTTACATTTTA
[1]
  binding result: binds
[2]
  binding result: binds
[3]
  binding result: binds

B2: ARE 36 bp, unlabeled (mass photometry) (dsDNA)
DNA 1: B1 DNA 1 with G27T, A29T, A30T
DNA 2: B1 DNA 2 with T7A, T8A, C10A
[4]
  binding result: binds

B3: Canonical ARE 36 bp (dsDNA)
DNA 1: B1 DNA 1 with G27T, A29T, A30T
DNA 2: B1 DNA 2 with T7A, T8A, C10A
[5]
  binding result: binds
